Experimental findings from publication PMC11784021, “Structural basis for nuclear import of adeno-associated virus serotype 6 capsid protein” (Journal of Virology, 2024) are described below.

“And” between values parts separate entries of the source, which are not always exact repeats. Equal entries are not always repeated. Primed or numbered codes have the meaning given here. Ends that are not written are not given here. FITC′ = fluorescein isothiocyanate; Ahx = NCCCCCC(=O)O

The term Kd denotes the concentration at which binding is half-saturated. A low value points to a tighter complex.

Common to all, as to conditions: both partners purified
The target in experiment [1] is T1, mouse importin α2 lacking residues 1-70 (IMPα2ΔIBB) (mouse, UniProt P52293 71-529). Kind of experiment: crystal structure; co-purified complex of AAV6 VP1-BR and IMPα2; hanging drop, 0.7 M sodium citrate, 0.01 M dithiothreitol, 0.1 M HEPES pH 7.5, 22°C; 2.3 Å.
Experiment [2] addresses T2, human importin α7 lacking the IBB domain (hIMPα7ΔIBB) (human, UniProt O60684 61-536).
T2 construct: pET30a, His tag with TEV site; also called ΔIBB-IMPα7
Kind of experiment: fluorescence polarisation; FITC-tagged AAV6 VP1-BR peptide at 2 nM; importin isoforms serially diluted from an upper concentration of 4.5 µM; three independent experiments. Background: In fluorescence polarisation assays a small probe gives low polarisation when free and higher when bound to something large.

In experiment [3] the target is T3, human importin α3 lacking the IBB domain (hIMPα3ΔIBB) (human, UniProt O00629 59-521).
T3 construct: pET30a, His tag with TEV site; also called ΔIBB-IMPα3
T3 sequence (looked up): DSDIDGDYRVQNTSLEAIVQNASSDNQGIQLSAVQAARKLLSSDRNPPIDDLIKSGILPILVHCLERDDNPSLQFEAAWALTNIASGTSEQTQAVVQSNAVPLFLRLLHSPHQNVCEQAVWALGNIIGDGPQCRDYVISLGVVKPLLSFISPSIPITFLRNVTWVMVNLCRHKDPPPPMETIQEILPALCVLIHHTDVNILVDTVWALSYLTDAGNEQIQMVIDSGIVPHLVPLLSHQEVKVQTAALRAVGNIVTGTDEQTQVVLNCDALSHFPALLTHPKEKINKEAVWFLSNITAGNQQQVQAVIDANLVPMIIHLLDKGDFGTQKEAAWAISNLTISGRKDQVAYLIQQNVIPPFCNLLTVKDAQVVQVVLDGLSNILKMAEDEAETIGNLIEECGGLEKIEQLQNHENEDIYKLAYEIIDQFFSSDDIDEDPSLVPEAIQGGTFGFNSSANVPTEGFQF
The description is as above.

For experiment [4], the target named is T4, human importin α5 lacking the IBB domain (hIMP5ΔIBB) (human, UniProt P52294 58-538).
T4 construct: pET30a, His tag with TEV site; also called IMPα5; ΔIBB-IMPα5
T4 sequence (P52294 58-538, stated change not applied): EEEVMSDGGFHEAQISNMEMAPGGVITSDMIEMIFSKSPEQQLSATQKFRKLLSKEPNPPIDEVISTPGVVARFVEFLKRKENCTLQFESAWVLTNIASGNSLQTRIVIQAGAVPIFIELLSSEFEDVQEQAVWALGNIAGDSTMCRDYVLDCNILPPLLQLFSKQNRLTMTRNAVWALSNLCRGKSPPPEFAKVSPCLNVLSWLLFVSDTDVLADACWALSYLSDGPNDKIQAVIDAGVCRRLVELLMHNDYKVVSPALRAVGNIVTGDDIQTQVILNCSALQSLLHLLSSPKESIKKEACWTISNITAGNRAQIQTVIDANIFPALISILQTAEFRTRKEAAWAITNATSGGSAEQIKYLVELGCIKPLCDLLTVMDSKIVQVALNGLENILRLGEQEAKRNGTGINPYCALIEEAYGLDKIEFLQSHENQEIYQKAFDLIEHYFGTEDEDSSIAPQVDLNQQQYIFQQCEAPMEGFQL
The description is as above.

Experiment [5] deals with T1, mouse importin α2 lacking residues 1-70 …. Described as above.

T2 sequence (O60684 61-536, stated change not applied): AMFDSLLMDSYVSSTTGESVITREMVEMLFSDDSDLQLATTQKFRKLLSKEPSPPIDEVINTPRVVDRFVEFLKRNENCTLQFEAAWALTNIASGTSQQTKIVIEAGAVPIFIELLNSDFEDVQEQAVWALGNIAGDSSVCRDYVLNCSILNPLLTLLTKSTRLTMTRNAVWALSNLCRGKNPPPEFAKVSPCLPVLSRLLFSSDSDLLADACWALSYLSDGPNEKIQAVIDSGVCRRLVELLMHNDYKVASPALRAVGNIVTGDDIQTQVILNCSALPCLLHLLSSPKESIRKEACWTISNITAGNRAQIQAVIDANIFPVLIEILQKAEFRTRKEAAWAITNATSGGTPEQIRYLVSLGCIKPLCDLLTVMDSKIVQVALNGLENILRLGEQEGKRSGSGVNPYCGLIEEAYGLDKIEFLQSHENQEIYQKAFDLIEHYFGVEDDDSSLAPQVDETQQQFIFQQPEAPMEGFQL

B1: AAV6 VP1-BR (recombinant, residues 115-174) (domain or fragment)
chain: GRAVFQAKKRVLEPFGLVEEGAKTAPGKKRPVEQSPQEPDSSSGIGKTGQQPAKKRLNFG
notes: A TEV protease site stands upstream of the insert 'for GST-tag cleavage'; 15 residues of it are seen in the final model; also called AAV6 VP1 basic region; source: E. coli (codon optimized, pGEX4T-1), co-purified with IMPα2
For B1, in experiment [1], the binding result was “binds”.

B2: AAV6 VP1-BR FITC-tagged peptide (residues 120-172) (peptide)
peptide: {FITC′-Ahx}-QAKKRVLEPFGLVEEGAKTAPGKKRPVEQSPQEPDSSSGIGKTGQQPAKKRLN
notes: also called FITC-tagged AAV6 VP1-BR; AAV6 VP1-BR FITC peptide; source: synthetic peptide (GenScript)
In the case of B2, the Kd in experiment [2] is 23 nM and 24 nM; in experiment [3] it was 198 nM; in experiment [4], 71 nM; in experiment [5] it was 265 nM.
